This assay has as its target IL-7 receptor (human) (UniProt P16871). The experiment in a line: cell-based or functional assay.
Sequence of UniProt P16871 (P16871 21-459, chain 1 of 2): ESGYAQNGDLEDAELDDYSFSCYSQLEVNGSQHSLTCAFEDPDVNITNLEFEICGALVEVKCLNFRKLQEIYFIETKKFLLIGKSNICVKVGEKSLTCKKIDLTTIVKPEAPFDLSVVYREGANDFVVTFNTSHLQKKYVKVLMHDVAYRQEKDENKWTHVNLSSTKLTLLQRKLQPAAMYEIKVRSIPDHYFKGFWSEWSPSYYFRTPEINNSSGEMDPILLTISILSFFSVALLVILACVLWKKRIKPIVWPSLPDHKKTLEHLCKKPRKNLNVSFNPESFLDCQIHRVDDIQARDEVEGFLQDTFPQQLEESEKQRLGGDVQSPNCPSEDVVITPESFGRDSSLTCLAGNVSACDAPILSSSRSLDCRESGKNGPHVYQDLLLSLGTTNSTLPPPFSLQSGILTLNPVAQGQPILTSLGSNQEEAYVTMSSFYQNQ
Sequence of UniProt P16871 (P31785 23-369, chain 2 of 2, further chain): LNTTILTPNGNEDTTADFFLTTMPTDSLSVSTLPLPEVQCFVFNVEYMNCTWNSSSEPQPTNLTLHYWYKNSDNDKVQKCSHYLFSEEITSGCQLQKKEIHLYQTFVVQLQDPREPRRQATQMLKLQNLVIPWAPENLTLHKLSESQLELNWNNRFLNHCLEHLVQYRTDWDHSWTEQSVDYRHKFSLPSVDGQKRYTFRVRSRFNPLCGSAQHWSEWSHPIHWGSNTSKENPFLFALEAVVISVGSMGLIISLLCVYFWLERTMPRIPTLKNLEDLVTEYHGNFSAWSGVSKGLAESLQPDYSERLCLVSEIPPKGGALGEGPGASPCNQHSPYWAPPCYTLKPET

As for “human interleukin-7 fused to human Fc sequence of IgG2 (hIL-7-Fc) (Fc fusion)”, the pSTAT5 expression in CD3+ T cells of COVID19+ patients' whole blood, ratio to unstimulated condition; supernatant dilution 1/2.5 stood at 6.5 fold; the pSTAT5 expression in CD3+ T cells of COVID19+ patients' whole blood, ratio to unstimulated condition; supernatant dilution 1/5 stood at 5.7 fold; the pSTAT5 expression in CD3+ T cells of COVID19+ patients' whole blood, ratio to unstimulated condition; supernatant dilution 1/10 is 4.9 fold.

For the origin of these results see US20230256057A1.
